B1: nifB promoter 50 bp (-47 to +3) (dsDNA)
DNA 1: GGAGAAGTGAATTGACTGTATTTGTCCCTGTCTCTAAGATGTAATTATAT
DNA 2: ATATAATTACATCTTAGAGACAGGGACAAATACAGTCAATTCACTTCTCC
B2: scrambled 39 bp DNA (dsDNA)
DNA 1: GTACGGAGTATCCAGCTCCGTAGCATGCAAATCCTCTGG
DNA 2: CCAGAGGATTTGCATGCTACGGAGCTGGATACTCCGTAC

What was measured:
[1] = target: T1, E. coli sigma70-RNAP holoenzyme (Escherichia coli, UniProt P0A7Z4;P0A8V2;P0A8T7;P0A800;P00579 1-329;1-1342;1-1407;2-91;1-613); experiment: EMSA; reported to bind more tightly than Paenibacillus sigma70; EMSA: Roche DIG Gel Shift Kit, 0.03 pmol labeled DNA, buffer not stated; footprinting: binding 30 min at 25 C, DNase I 40 s at 37 C; conditions: protein: commercial; chain copies: 2;1;1;1;1; label: digoxigenin (DIG Gel Shift Kit); blunt
[2] = target: T1, E. coli sigma70-RNAP holoenzyme; experiment: EMSA; EMSA: Roche DIG Gel Shift Kit, 0.03 pmol labeled DNA, buffer not stated; footprinting: binding 30 min at 25 C, DNase I 40 s at 37 C; conditions: protein: commercial; chain copies: 2;1;1;1;1; blunt

Binder	binding result [1]	binding result [2]
B1	binds	–
B2	–	no binding
